According to patent US8409583B2, “Engineered versions of CgtB (β-1,3 galactosyltransferase) enzymes, with enhanced enzymatic properties” (National Research Council of Canada, priority 2007, dated 2013):

Tests used:
Type in all cases: biochemical
IFNα2b[Tn]-FCHASE = test: CgtB activity assay (capillary electrophoresis), glycopeptide acceptor IFNα2b[Tn]-FCHASE; settings: purified enzyme; 1 mM IFNα2b[Tn]-FCHASE
Method: (§1) The oligosaccharide acceptors and the interferon alpha 2b (IFNα2b) peptide (VGVTETP, corresponding to positions 103-109 of the mature IFNα2b protein) were labeled with FCHASE as previously described (Wakarchuk, W. et al., J Biol. Chem. 271:19166-19173 (1996)). IFNα2b-FCHASE was purified by reverse-phase chromatography using a PRP-1 column (10×250 mm, Hamilton Company, Reno, Nev.) in 10 mM ammonium acetate pH 5.5 with a gradient of acetonitrile (0-100% over 4 column volumes). CgtB activity assays were done in cell lysates or using purified enzyme in 50 mM MES pH 6.0, 0.5 mM of FCHASE-acceptor (unless otherwise indicated), 10 mM MnCl2, 10 mM DTT, 1 mM UDP-Gal at 37° C. from 5 to 30 minutes. All reactions were stopped by addition of 10 μL of 50% acetonitrile, 10 mM EDTA and 1% SDS and were diluted with H2O to obtain 10-15 μM final concentration of the FCHASE-labeled compounds. The samples were analyzed by capillary electrophoresis as described previously (Wakarchuk, W. W. et al., Methods Mol. Biol. 213:263-274 (2003)) except that a P/ACE MDQ Capillary Electrophoresis System equipped with a Laser module 488 (Beckman Coulter, Calif.) was used. Quantitation of the reactions was performed by integration of the trace peaks using the MDQ 32 Karat software.
The IFNα2b protein was purchased from Cell Sciences (Canton, Mass.). […]

[1] = CgtB activity assay (capillary electrophoresis), acceptor lyso-GM2-FCHASE; settings: lysoGM2-FCHASE at 0.5 mM; reference (100%) GM2-FCHASE for CgtBOH4384 and CgtB11168, GA2-FCHASE for CgtBHS:10; average of three experiments
Method: as §1

[2] = CgtB activity assay (capillary electrophoresis), acceptor GA2-FCHASE; settings: GA2-FCHASE at 0.5 mM; reference (100%) GM2-FCHASE for CgtBOH4384 and CgtB11168, GA2-FCHASE for CgtBHS:10; average of two experiments
Method: as §1

[3] = CgtB activity assay (capillary electrophoresis), acceptor GalNAcα-FCHASE; settings: for Relative activity (%): GalNAcα-FCHASE at 0.5 mM, reference (100%) GM2-FCHASE for CgtBOH4384 and CgtB11168, GA2-FCHASE for CgtBHS:10, average of two experiments; for Specific Activity (mU/mg) on a given FCHASE-labeled acceptor: purified enzyme, 3 mM GalNAcα-FCHASE
Method: as §1, with “CgtB activity assays were done in cell lysates or using purified enzyme in 50 mM MES pH 6.0, 0.5 mM of FCHASE-acceptor (unless otherwise indicated), 10 mM MnCl2, 10 mM DTT, 1 mM UDP-Gal at 37° C. from 5 to 30 minutes.” left out

[4] = CgtB activity assay (capillary electrophoresis), acceptor GalNAcβ-FCHASE; settings: for Relative activity (%): GalNAcβ-FCHASE at 0.5 mM, reference (100%) GM2-FCHASE for CgtBOH4384 and CgtB11168, GA2-FCHASE for CgtBHS:10, average of three experiments; for Specific Activity (mU/mg) on a given FCHASE-labeled acceptor: purified enzyme, 3 mM GalNAcβ-FCHASE
Method: as §1, with “CgtB activity assays were done in cell lysates or using purified enzyme in 50 mM MES pH 6.0, 0.5 mM of FCHASE-acceptor (unless otherwise indicated), 10 mM MnCl2, 10 mM DTT, 1 mM UDP-Gal at 37° C. from 5 to 30 minutes.” left out

[5] = CgtB activity assay (capillary electrophoresis), acceptor GM2-FCHASE; settings: for Relative activity (%): GM2-FCHASE at 0.5 mM, reference (100%) GM2-FCHASE for CgtBOH4384 and CgtB11168, GA2-FCHASE for CgtBHS:10, average of three experiments; for Specific Activity (mU/mg) on a given FCHASE-labeled acceptor: purified enzyme, 1 mM GM2-FCHASE
Method: as §1

| Molecule | Specific Activity (mU/mg) on a given FCHASE-labeled acceptor (IFNα2b[Tn]-FCHASE) | Relative activity (%) [1] | Relative activity (%) [2] | Relative activity (%) [3] | Specific Activity (mU/mg) on a given FCHASE-labeled acceptor [3] | Relative activity (%) [4] | Specific Activity (mU/mg) on a given FCHASE-labeled acceptor [4] | Relative activity (%) [5] | Specific Activity (mU/mg) on a given FCHASE-labeled acceptor [5] |
| --- | --- | --- | --- | --- | --- | --- | --- | --- | --- |
| CJL-10: Full length CgtB β-1,3-galactosyltransferase from C. jejuni OH4384 fused to E. coli MalE (maltose binding protein) at the N-terminus (protein, left off: large carriers) MFKISIILPTYNVEQYIARAIESCINQTFKDIEIIVVDDCGNDNSINIAKEYSKKDKRIKIIHNEKNLGLLRARYEGVKVANSPYIMFLDPDDYLELNACEECIKILDEQDEVDLVFFNAIVESNVISYKKFDFNSGFYSKKEFVKKIIAKKNLYWTMWGKLIRKKLYLEAFASLRLEKDVKINMAEDVLLYYPMLSQAQKIAYMNCNLYHYVPNNNSICNTKNEVLVKNNIQELQLVLNYLRQNYILNKYCSVLYVLIKYLLYIQIYKIKRTKLMVTLLAKINILTLKILFKYKKFLKQC | 83.5 mU/mg | 444^4% | 29^3% | 6.4^3% | 158^1 mU/mg | 47.5^4% | 192 mU/mg | 100^4% | 210 mU/mg |
| CJL-20: Full length CgtB from C. jejuni NCTC 11168 fused to MalE at the N-terminus (protein, left off: large carriers, Full length CgtB from C. jejuni NCTC 11168 fused to MalE at the N-terminus) MSQISIILPTYNVEKYIARALESCINQTFKDIEIIVVDDCGNDKSIDIAKEYASKDDRIKIIHNEENLKLLRARYEGAKVATSPYIMFLDSDDYLELNACEECIKILDMGGGGKIDLLCFEAFITNAKKSIKKLNIKQGKYNNKEFTMQILKTKNPFWTMWAKIIKKDIYLKAFNMLNLKKEIKINMAEDALLYYPLTILSNEIFYLTQPLYTQHVNSNSITNNINSLEANIQEHKIVLNVLKSIKNKKTPLYFLIIYLLKIQLLKYEQNFNKRNINLIYYKINILYQKYQFKWKKFLYNLIP |  | 606.2^4% | 8.8^3% | 3.0^3% | 13.6 mU/mg | 50.5^4% | 40.4 mU/mg | 100^4% | 27 mU/mg |
